Measured values from PMC2773002, “Differential Role of Human Choline Kinase α and β Enzymes in Lipid Metabolism: Implications in Cancer Onset and Treatment” (PLoS ONE, 2009).

What was measured:
[1] = substrate: C[N+](C)(C)CCO; experiment: Michaelis-Menten kinetics (Km), radiolabelled substrate, extracts of E. coli expressing the recombinant enzyme; type: biochemical, Homo sapiens; settings: ATP, MgCl2
[2] = substrate: NCCO; experiment: as above; type: biochemical, Homo sapiens; settings: ATP, MgCl2

B1: ChoKβ (choline kinase beta, ChoKβ1) (Homo sapiens) (protein)
chain: AAEATAVAGSGAVGGCLAKDGLQQSKCPDTTPKRRRASSLSRDAERRAYQWCREYLGGAWRRVQPEELRVYPVSGGLSNLLFRCSLPDHLPSVGEEPREVLLRLYGAILQGVDSLVLESVMFAILAERSLGPQLYGVFPEGRLEQYIPSRPLKTQELREPVLSAAIATKMAQFHGMEMPFTKEPHWLFGTMERYLKQIQDLPPTGLPEMNLLEMYSLKDEMGNLRKLLESTPSPVVFCHNDIQEGNILLLSEPENADSLMLVDFEYSSYNYRGFDIGNHFCEWVYDYTHEEWPFYKARPTDYPTQEQQLHFIRHYLAEAKKGETLSQEEQRKLEEDLLVEVSRYALASHFFWGLWSILQASMSTIEFGYLDYAQSRFQFYFQQKGQLTSVHSSS
notes: human ChoKβ1 expressed in E. coli DH5α (extracts)
How did the Km [1] turn out when B1 was run?
The Km was 0.57 mM.

What about the Km [2] of the same protein?
The Km was 2.01 mM.
